The target of test [1] is T1, soluble CD73 in human serum/peripheral blood (human, UniProt P21589 27-549, limits assumed).
T1 construct: also called sCD73; free soluble CD73
T1 sequence (looked up): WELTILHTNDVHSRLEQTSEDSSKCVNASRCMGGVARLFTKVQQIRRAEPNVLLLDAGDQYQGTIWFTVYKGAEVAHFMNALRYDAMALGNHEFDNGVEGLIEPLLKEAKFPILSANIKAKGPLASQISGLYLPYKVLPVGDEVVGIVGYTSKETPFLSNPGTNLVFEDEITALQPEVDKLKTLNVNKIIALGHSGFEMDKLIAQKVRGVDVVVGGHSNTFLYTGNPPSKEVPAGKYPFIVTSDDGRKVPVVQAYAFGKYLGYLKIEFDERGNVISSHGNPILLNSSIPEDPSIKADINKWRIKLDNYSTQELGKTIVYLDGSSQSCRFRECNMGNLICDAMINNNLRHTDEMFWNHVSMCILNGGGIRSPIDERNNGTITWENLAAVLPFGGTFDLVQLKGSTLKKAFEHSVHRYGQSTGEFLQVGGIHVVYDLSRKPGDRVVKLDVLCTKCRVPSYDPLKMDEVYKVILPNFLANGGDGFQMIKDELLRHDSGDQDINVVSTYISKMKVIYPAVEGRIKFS
The test is described as follows: MSD ECL sandwich immunoassay, 6E11 as capture. The procedure: (§1) The free sCD73 assay utilizes biotinylated anti-CD73 antibody 6E11 (SEQ ID NOs: 28 and 29) to capture drug-unbound sCD73 from the test samples (as it competes with CD73.A for binding to hCD73). MSD Streptavidin Gold assay plates were coated overnight at 2 to 8° C. with 50 μL/well of biotinylated 6E11 diluted to a final concentration of 0.5 μg/mL in 1× DPBS buffer. The following day, the wells were washed using PBS with 0.05% Tween 20 and 0.5× StabilCoat prepared in water was added to wells at 100 μL per well and incubated at room temperature for one hour. Wells were then aspirated and plates were dried and pouched with desiccant. Test samples drawn from study animals were kept frozen at −70° C. […] Bound sCD73 was subsequently detected using ruthenylated anti-CD73 antibody 4C3 (SEQ ID NOs: 38 and 39) (previously prepared with 0.1% Proclin 300 at working concentration) at a final concentration of 0.125 μg/ml in Starting Block (PBS) at 50 μL per well. The plates were incubated for one hour at 25° C. with shaking, at about 500 rpm, and then washed again before adding 1× MSD Read Buffer prepared in water and then read on MSD Sector Imager 600 by electrochemiluminescenece (ECL) technology. […] Test samples were quantified using a 4-parameter logistic fit regression model.

Test [2] addresses T2, cynomolgus CD73 (in cell lines) (cynomolgus monkey, UniProt A0A2K5V5U7 27-549).
T2 construct: whole, on cells; also called Cyno CD73
T2 sequence: T1 sequence (looked up) with M199T, T350A, V466I
As to the kind of experiment: CD73 binding in cell lines (cyno), median EC50; method not stated.

Test [3] addresses T1, soluble CD73 in human serum/peripheral …. As to the kind of experiment: free (not bound by CD73.A) sCD73 ECL immunoassay on patient samples. How it is done:
as §1

Where a chain is given by its changes, count along the chain named. In names and notes the source's numbering stands.

B1: anti-CD73 antibody 6E11 (antibody, human IgG1, kappa, V domains shown)
VH: EVQLVESGGALVQPGRSLRLSCAASGFTFDDYAMHWVRQAPGKGLEWVSGITWNSGGIGYADSVKGRFTISRDNAKNSLYLQMNSLRAEDTALYYCAKDRYYSSWLLFDNWGQGILVTVSS
VL: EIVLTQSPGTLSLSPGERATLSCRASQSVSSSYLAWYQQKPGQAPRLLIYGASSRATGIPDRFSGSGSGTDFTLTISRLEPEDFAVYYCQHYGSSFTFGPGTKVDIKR
modifications: biotinylated (sites not given)
notes: Used as the biotinylated capture reagent on streptavidin plates; also called biotinylated 6E11
With B1, in test [1], the binding result is given as “binds”.

B2: CD73.4-IgG2C219S.IgG1.1f (antibody, V domains shown)
VH: QVQLVESGGGVVQPGRSLRLSCAASGFTFSNYGMHWVRQAPGKGLEWVAVILYDGSNKYYPDSVKGRFTISRDNSKNTLYLQMNSLRAEDTAVYYCARGGSSWYPDSFDIWGQGTMVTVSS
VL: DIQMTQSPSSLSASVGDRVTITCRASQGISSWLAWYQQKPEKAPKSLIYAASSLQSGVPSRFSGSGSGTDFTLTISSLQPEDFATYYCQQYNSYPLTFGGGTKVEIKR
notes: IgG2 CH1/hinge (C219S) with IgG1.1f CH2/CH3 hybrid constant region; also called CD73.A; CD73.4-IgG2CS-IgG1.1f
As usually defined, the EC50 is the concentration at which the effect is half-maximal. B2: in test [2], the EC50 was 300 pM. Further, the binding result in test [3] is reported as “binds”.
